The DeepSol protein solubility set

Test: soluble on expression in E. coli; label from the status in PepcDB or PDB records

Row | Sequence | soluble on expression in E. coli
1 | MGSDKIHHHHHHMRKHGGDVYAYSGQYENILDFSANTNAFIDTGVLSRYPEVSPGDIEKMILQYTGAKSLRVIIGPGLTHFIYRIPAWMGLRRSLIIEPNFNEYEASLLAYGSRTSSLGLGVLKRNPEIVRSYRPDSIFICSPVNPTGDLVDAGLLRKLSMEMSRMGGILFVDQAFGDFVPEHAEETVRIAEEMGNVIIGRSLTKILSIPSLRLGYILVSDQVFGMIRDREEPWAVCEPALEFVRKADLKALRDTSLKRIGEERSYLMEALENMGFEILGDPHANFIAFRSPFEIDLKKQLLKSGILIRDLSDYADFGKNCYRVAVRGRSENALLIQALRNAIL | not soluble
2 | MIARLAIAALLVSSSLACLPGLGGLGGGCGGAAASPCAAPPMPPPVSCGGGCGAAPYPAGPMAAPYFAPAAIAPPPPPQGAVIGVGAQPAVYSAPLPAGNAYVGQGK | not soluble
3 | MNPLLQDYARILLEWNQTHNLSGAKNLSELEPQITDALKPLEFIKDFKSCLDIGSGAGLPAIPLALEKPEVKFILLEPRIKRAAFLNYLKSVLPLKNIEIIKKRLEDYQNLLQVDLITSRAVASSSFLIEKSQRFLKDKGYFLFYKGEQLKDEIACKDTECFMHQKRVYFYKSKESLCLEHHHHHH | soluble
4 | LKFGTSWKEAYGTGWLIDWKDVKQDNKFTAYLATNLHVADSLRNKDDYKPYNKDGNQKEFLPGDITTEFSLGKYIDA | not soluble
5 | MIIKPRIRGFICTTTHPVGCEANVKEQIAYTKAQGPIKNAPKRVLVVGASSGYGLSSRIAAAFGGGASTIGVFFEKEGTEKKPGTAGFYNAAAFEKLAREEGLYAKSLNGDAFSNEAKQKTIDLIKEDLGQVDMVVYSLASPVRKMPETGELIRSALKPIGETYTSTAVDTNKDVIIEASVEPATEEEIKDTVTVMGGEDWELWINALSDAGVLAEGCKTVAYSYIGTELTWPIYWDGALGKAKMDLDRAAKALNEKLGATGGSANVAVLKSVVTQASSAIPVMPLYIAMVFKKMREEGVHEGCMEQIYRMFSQRLYKEDGSAAEVDDMNRLRLDDWELREDIQQHCRELWPQITTENLKELTDYVEYKEEFLKLFGFGVEGVDYEADV | not soluble
6 | MHIAILGCTSQIAKDLIRSIYVYSQHDLILFGRTPQQTQSWLAENGITSRCSVNQYEEYPNIDHDVVINFVGIGDPSKAAAMGGSIFDITLHYDELVLNELKKYPDRRYLFLSSGAAYGSSFLEPADADTPSTININNLLPQEYYSVAKLHAECRHRSLKEYAIVDLRVFNVFSRTQDLEARFFITDIVRSIHSGTELITSSDMIYRDFMHPKDFYQLVERVLNAPPMNISLDCYSRQPVDKTTLLDEMKKTFGLSYRVKESNMSINATGIKPCYYSKNKRAAEFGYLPEYSSLETIIEETNAILGLQKTVLEHHHHHH | soluble
7 | MGSDKIHHHHHHMSGQCLYILRNRTNWHVNRLRVFTPSQEGGASVCKRTTRRAADTIPRNIDSCCDRVLRNGILRRSRAAPTNRDTNMLHQNNGFHANALLGSLADDSLRALAPHLELVKIKSAQLLCETDEPMRHLYFPTTAMMSVLYLMEDGAMVEVAAVGNEGVVGVSTLADYGCGGASGRIEVRSGGYAYRVSTQVFRREFDRSLDTFQLMLRYWQAAMTQIARGALCNRHHSVSEQLSRWLLLAHDRVEGDELAVTQQTIANMLGVRREGITEAAGKLQEAGLIRQRRGHITVLDREGLEARACECYGVIRGEFNRLILEARRDAHAPQPIPAEGRPLRVAGYHGAVRSAA | not soluble
8 | MAGLRSFSIVMPAYNVVTQRGERIFRETLESIAASCRYLQQHFPYTPEGELILISDGSTDRTCDVAMAGWPNAVPLQLVGLPTNVGIAAARNIGVRLAKGEVIFFCDADDLYRPEHLFLALSVLNQPLPEPYAPAYFGAVRTGVYCRDRLHPYWHKSLEQTLVLNLAVRREVHEFIGGFPEDEVFRQFRYGAEDVAYAYWLHQFCHTARLEQRTVEYRRFPLEHHHHHH | soluble
9 | RIWRIIPDTSVIIDGRLSSRIKSGEFGSAEVIIPEAVVSELEAQANKGREIGFKGLEELSELRKLADRGDIQLKFSGVQPSLEEIKLSREGRVDALIRQTALDEGGLFVSEDRVQSLIARAKGLDVEYMHPKV | not soluble
10 | GPGSMTTSDELPANGELDQPERIPDVVECERLKKAGNDLFAADRVAEALELYREAIKHAPLKPVKKPTQHRQDEVPPCGSEGTAQNSIGESSVVSEKSSAPGTEKSSKVGADDAAQDGDDDGIDYTLTSQVYCNAGLCLSKQGMPEDAITHLSEAIRHNKQYSKAYYRRAECYYVLGKWSNAYGDYEEYEKLGGTLDAGSQDRKRQAKAKVDEEMQKMLGELKNMGNRFLNYFGLSTDNFKFDKDPNTGGYSVRFEQ | not soluble
11 | MMAKKPPKPAPRRIFQERLKITALPLYFEGFLLIKRSGYREYEHYWTELRGTTLFFYTDKKSIIYVDKLDIVDLTCLTEQNSTEKNCAKFTLVLPKEEVQLKTENTESGEEWRGFILTVTELSVPQNVSLLPGQVIKLHEVLEREKKRRIETEQSTSVEKEKEPTEDYVDVLNPMPACFYTVSRKEATEMLQKNPSLGNMILRPGSDSRNYSITIRQEIDIPRIKHYKVMSVGQNYTIELEKPVTLPNLFSVIDYFVKETRGNLRPFICSTDENTGQEPSMEGRSEKLKKNPHIA | soluble
12 | AHHHHHHSSGLEVLFQGPNELNYGQLSISPIFQGGSYQLNNKSIDISSLLLDKLSGESQTVVMKFKADKPNSLQALFGLSNSKAGFKNNYFSIFMRDSGEIGVEIRDAQKGINYLFSRPASLWGKHKGQAVENTLVFVSDSKDKTYTMYVNGIEVFSETVDTFLPISNINGIDKATLGAVNREGKEHYLAKGSIDEISLFNKAISDQEVSTIPLSNPFQLIFQSGDSTQANYFRIPTLYTLSSGRVLSSIDARYGGTHDSKSKINIATSYSDDNGKTWSEPIFAMKFNDYEEQLVYWPRDNKLKNSQISGSASFIDSSIVEDKKSGKTILLADVMPAGIGNNNANKADSGFKEINGHYYLKLKKNGDNDFRYTVRENGVVYNETTNKPTNYTINDKYEVLEGGKSLTVEQYSVDFDSGSLRERHNGKQVPMNVFYKDSLFKVTPTNYIAMTTSQNRGESWEQFKLLPPFLGEKHNGTYLCPGQGLALKSSNRLIFATYTSGELTYLISDDSGQTWKKSSASIPFKNATAEAQMVELRDGVIRTFFRTTTGKIAYMTSRDSGETWSKVSYIDGIQQTSYGTQVSAIKYSQLIDGKEAVILSTPNSRSGRKGGQLVVGLVNKEDDSIDWKYHYDIDLPSYGYAYSAITELPNHHIGVLFEKYDSWSRNELHLSNVVQYIDLEINDLTK | soluble
13 | GSHMEEKLAVSLQEALQEGDTRALREVLEEIHPQDLLALWDELKGEHRYVVLTLLPKAKAAEVLSHLSPEEQAEYLKTLPPWRLREILEELSLDDLADALQAVRKEDPAYFQRLKDLLDPRTRAEVEALARYEEDEAGGLMTPEYVAVREGMTVEEVLRFLRRAAPDAETIYYIYVVDEKGRLKGVLSLRDLIVADPRTRVAEIMNPKVVYVRTDTDQEEVARLMADYDFTVLPVVDEEGRLVGIVTVDDVLDVLEAEATEDIHKLGAVDVPDLVYSE | soluble
14 | GMGKGKSAIESQIRMLKLAKEIVEEVASSFPNLEEVYIFGSRARGDYLDTSDIDILFVFKGIKEMNVFDRMYMVSRFIRGNVDYIVLDEGEKDRVKDKVLFWKREKGFVLL | soluble
15 | MKKDIGDHLISKLDLQDIAKVLSDELSGSELNTVLLDIFNKRVQQETPSSLLSKYEGNKLVKPALLEDVLEYKEKELRCYKLIAGRGFEPIELSPVAQFGTNSVIATVDQKKVLTSLRNTEVQADPTNTIALHYASLKKKGELDNKTYNYSNISRVIRTQVFNNPNFTPHFTVLALISCGRDTGSFNFEKEELLKHLTTSYEICKSYGVEKIYYEIIPCKGYDSQSPLIMESISYVRKKNSNLEVLVIAPEHDNNYYHGFRIKQQIVIGGNTIEIADGGLLDWTQQLLTNKKERMMTFGLGIQVLYHLTK | soluble
16 | MGSHHHHHHDITSLYKKAGSAAAVLEENLYFGGSFTMANVNKTPGKTRRAEVAGGGFAGLTAAIALKQNGWDVRLHEKSSELRAFGAGIYLWHNGLRVLEGLGALDDVLQGSHTPPTYETWMHNKSVSKETFNGLPWRIMTRSHLHDALVNRARALGVDISVNSEAVAADPVGRLTLQTGEVLEADLIVGADGVGSKVRDSIGFKQDRWVSKDGLIRLIVPRMKKELGHGEWDNTIDMWNFWPRVQRILYSPCNENELYLGLMAPAADPRGSSVPIDLEVWVEMFPFLEPCLIEAAKLKTARYDKYETTKLDSWTRGKVALVGDAAHAMCPALAQGAGCAMVNAFSLSQDLEEGSSVEDALVAWETRIRPITDRCQALSGDYAANRSLSKGNMFTPAALEAARYDPLRRVYSWPQ | soluble
17 | NENFRWKTAVNMSMNRNKVVSLHKDYKSFRYGSEGFSMAYDMWVKEGGKLGDIYGNGFERDENGKIKLNETGNPIKVTGNNTLLGNANPDALLGWSNTFTYKGFTLYFLIDARIGGDVMSLTQAHLDAMGVSKESGESRDRGYVEYEGIQFKDVPNFYGTVGGRNGISEYYMYDATNVRLRELTLGYSFPETLLAKTKFIKGLDLTLVARNLFFLYKDAPFDPDATLSVGNTLQGVDVFGMPTTRNIGFNVKFTF | not soluble
18 | MIYPLPAILVSCGKDESEYNIITVAWTGTICTNPPMCYISVRPERHSYDIIKKNMEFVINLTTKDMAFPTDWCGVRSGRNYRKFEEMKLTPGRCTVVSAPLIEESPLCIECRVKEIVSLGSHDMFIADVVNVRADDRNLNPETGKFELAEANPLVYVHGGYYDLGEKIGKFGWSVEKKK | not soluble
19 | MGSDKIHHHHHHMLRLITDFDGPIIDVSERYYRVYQFCLEKTRRPDQVVQELPKAEFWQLKRSRVPEKQIAFNSGLDEAQAQEFAQLRRQTVHTEAYFNYDTLAPGAVDALLKIQEAGIDLAVMTMRRVRELDYAFKKYDLGRFFPENRCYCLSNDYVKTRDIEDKPLLMARALKELPPAADTWMVGDTEADITAAKNYDIKVMAVESGIRDRTQLELYHPDLIVKDFSTAVDLVLKPKHLV | not soluble
20 | MGSDKIHHHHHHMRILALVPGGIGDQILFFPTVADLKKYYPQAQIDVVVEPRAVGAYRVCAEVDQVFPFDFKDRNSLADWGNLLGSIREREYEAVLSLGQRSLVGLFLWLTGIPKRVGYAGRGKIFLTDAVPLNREQYAGALYHDLLQGFGINTPCPNPKLTLARQDLDWATAEQQRLGLAGQGYLVLHGGSSTLAKLKGLQKVYPVEKWAIVLRSIREQRPSLPFVVVQGPDDAEFVAELRKSNLDFQVVQPPDIGKLAAIIAGADLMLCTDSAPMHLAVASGTRTIALFGPFEPAKLLPADDRFIGIKAQGVDVATIPPQEIIDRLFGR | not soluble
21 | IPLFSDAEIKPNHATRTTQVGMPLAISVDDYSQLAFVLTQSGEIQYLSMDAPDKPAIYTQQLATNPVSFSQSAPGLGWYGLVDDQGLAHIFKPEFNATLRENTRPPEVVALSTDMNLTLTDAQDPVTQFVFSASTQTPTIVWQTRSGKVKARWQEKSALGVAPTTIDFSFSAGFDAPQQMLLTPDGETLYLRDGSELIVLTKAAQKFTVREVIDLTQGDKKHSVRTIDLLAGAYSLLVTHNDGRVSQWFDTLQNDKRTLTHIRDFKLASELKYLLPDSHRKGFYSFYTNGTLQSHYTTSEKLVLFKRAYKQAPAMAAMSNNERYLITWNDDSLKVAEVDNSYPEVSLSSLWQKVWYEGYPEPEFVWQSTSASDNFEAKFSLVPIAFGTIKAA | not soluble
22 | MYKTFYSLSREPFAKETDPSEAYQGAAFQEALRALEYVKRTRGIGLLIGEPGAGKTFALRALKESLNPSLYHVVYFPLSTGGVMDFYRGLALGLGEEPKYRKVDLFRQIQQAIERLHHERRITPVFILDEMHLAKDAFLQDIAILFNFEMDSTNPFVLILAGLPHLQGKLRLNQHRPLDQRIIMRYRMGPMEKEEVAGYIEHRMKQAGAKHPIFTPSALEAIALQSRGWPRVINTLATTCLLYGHQLKKDVIDEEVVRMAAEEMGY | not soluble
